# Experimental data taken from PMC6179307 (2018).
# B1: RPT-6::VC155 [C. elegans] / ELT-2::VN173 [C. elegans] (parent complex)
# chain 1: MAPPASTASSADPSKPTAQKLTEESDEKTLRKYFSTKVDDAQQKVADKSQNVRRLQAQRNELNTKVRMLKEELQQLHEQGSYVGEVSKAMDKKKVLVKVHPEGKYVVDVDKSIDINSLNTGARVALRADSYALHKLLPNKVDPLVSLMMVEKVPDSTYEMVGGLDKQIKEIKEVIELPVKHPELFDALGIAQPKGVLLFGPPGTGKTLLARAVAHHTECTFIRVSGSELVQKFIGEGARMVRELFVMAREHAPSIIFMDEIDSIGSSRVEGSSGGDSEVQRTMLELLNQLDGFEATKNIKVIMATNRIDILDPALLRPGRIDRKIEFPAPDEKARADILKIHSRKMNLMRGINMAKIAEQIPGASGAEVKSVCTEAGMFALRERRIHVTQEDFEMAVGKVMQKDSEKNMSIKKLWK
# chain 2: MDNNYNDNVNGWAEMEPSQPMGGLRLPTQNMDPPEQNNESQLSELPRMKIDNDYASPIERQSVITSGTNNYEPKVETVTSFFHTGIDYSNFGMLDQTTMQPFYPLYSGIPVNTLGTFSGYTNSIYDKPSLYDPSIPTINIPSTYPTVAPTYECVKCSQSCGAGMKAVNGGMMCVNCSTPKTTYSPPVAYSTSLGQPPILEIPSEQPTAKIAKQSSKKSSSSNRGSNGSASRRQGLVCSNCNGTNTTLWRRNAEGDPVCNACGLYFKLHHIPRPTSMKKEGALQTRKRKSKSGDSSTPSTSRARERKFERASSSTEKAQRSSNRRAGSAKADRELSTAAVAAATATYVSHADLYPVSSAAVTLPDQTYSNYYQWNTAATAGLMMVPNDQNYVYAATNYQTGLRPADNIQVHVMPVQDDETKAAARDLEAVDGDS
# Variants of: B1
# Assay: bimolecular fluorescence complementation (BiFC) in vivo, quantified with Copas Biosort; three independent experiments combined, minimum of 399 animals in each case; fluorescence observed twelve hours after heat shock; parent: 750; read off a plot
row,response [Fluorescence/TOF],Variant
1,~390,chain 1 MAPPASTASSADPSKPTAQKLTEESDEKTLRKYFSTKVDDAQQKVADKSQNVRRLQAQRNELNTKVRMLKEELQQLHEQGSYVGEVSKAMDKKKVLVKVHPEGKYVVDVDKSIDINSLNTGARVALRADSYALHKLLPNKVDPLVSLMMVEKVPDSTYEMVGGLDKQIKEIKEVIELPVKHPELFDALGIAQPKGVLLFGPPGTGRTLLARAVAHHTECTFIRVSGSELVQKFIGEGARMVRELFVMAREHAPSIIFMDEIDSIGSSRVEGSSGGDSEVQRTMLELLNQLDGFEATKNIKVIMATNRIDILDPALLRPGRIDRKIEFPAPDEKARADILKIHSRKMNLMRGINMAKIAEQIPGASGAEVKSVCTEAGMFALRERRIHVTQEDFEMAVGKVMQKDSEKNMSIKKLWK [chain 1 K206R]
